B1: minF1; the commonest letter at each place (parent)
chain: GAGACCGCAACTGAAAAGTTGTTATCAGAAATGGATGGGTTGAATTTCTGCACGTAGAAGCAAAAGGC

Variants of: B1
Assay: fraction ligated after 30 min (ligated reads / total reads); higher = more ligase activity
Settings: with F1*subA RNA substrate (template-directed ligation), 42 °C
Procedure, shortened: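 Oligo-pool templates of minimized ligase ribozyme variants were PCR-amplified, T7-transcribed and gel-purified. Ligated and unligated RNAs were gel-separated, reverse transcribed with barcoded primers, and MiSeq-sequenced; core bases were filtered at quality ≥30. Fraction ligated per variant was ligated reads over total reads.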

Variant	fraction ligated
GAGACCGCAACTGAAAAGTTGTTATCAGAAGTGGATCGGTTGAATTTCTGCACGTAGAAGCAAAAGGC [A31G G37C]	0.00462
GAGACCGCAACTGAAAAGTTGTTATCAGAAGTGGATAGGTTGAATTTCTGCACGTAGAAGCAAAAGGC [A31G G37A]	0.00669
GAGACCGCAACTGAAAAGTTGTTATCAGAAGTGGATTGGTTGAATTTCTGCACGTAGAAGCAAAAGGC [A31G G37T]	0.0111
GAGACCGCAACTGAAAAGTTGTTATCAGAAAAGGGTGGGTTGAATTTCTGCACGTAGAAGCAAAAGGC [T32A A35G]	0.0076
GAGACCGCAACTGAAAAGTTGTTATCAGAAAAGGCTGGGTTGAATTTCTGCACGTAGAAGCAAAAGGC [T32A A35C]	0.00546
GAGACCGCAACTGAAAAGTTGTTATCAGAAAAGGTTGGGTTGAATTTCTGCACGTAGAAGCAAAAGGC [T32A A35T]	0.00186
GAGACCGCAACTGAAAAGTTGTTATCAGAAAAGGATGGGTTGTATTTCTGCACGTAGAAGCAAAAGGC [T32A A43T]	0.0778
GAGACCGCAACTGAAAAGTTGTTATCAGAAAAGGATGGGTTGGATTTCTGCACGTAGAAGCAAAAGGC [T32A A43G]	0.0134
GAGACCGCAACTGAAAAGTTGTTATCAGAAAAGGATGGGTTGCATTTCTGCACGTAGAAGCAAAAGGC [T32A A43C]	0.0118
GAGACCGCAACTGAAAAGTTGTTATCAGAAGTGGGTGGGTTGAATTTCTGCACGTAGAAGCAAAAGGC [A31G A35G]	0.294
GAGACCGCAACTGAAAAGTTGTTATCAGAAGTGGCTGGGTTGAATTTCTGCACGTAGAAGCAAAAGGC [A31G A35C]	0.022
GAGACCGCAACTGAAAAGTTGTTATCAGAAGTGGTTGGGTTGAATTTCTGCACGTAGAAGCAAAAGGC [A31G A35T]	0.0156
GAGACCGCAACTGAAAAGTTGTTATCAGAAGTGTATGGGTTGAATTTCTGCACGTAGAAGCAAAAGGC [A31G G34T]	0.00852
GAGACCGCAACTGAAAAGTTGTTATCAGAAGTGAATGGGTTGAATTTCTGCACGTAGAAGCAAAAGGC [A31G G34A]	0.0934
GAGACCGCAACTGAAAAGTTGTTATCAGAAGTGCATGGGTTGAATTTCTGCACGTAGAAGCAAAAGGC [A31G G34C]	0.00824
GAGACCGCAACTGAAAAGTTGTTATCAGAAGTAGATGGGTTGAATTTCTGCACGTAGAAGCAAAAGGC [A31G G33A]	0.811
GAGACCGCAACTGAAAAGTTGTTATCAGAAGTTGATGGGTTGAATTTCTGCACGTAGAAGCAAAAGGC [A31G G33T]	0.567
GAGACCGCAACTGAAAAGTTGTTATCAGAAGTCGATGGGTTGAATTTCTGCACGTAGAAGCAAAAGGC [A31G G33C]	0.765
GAGACCGCAACTGAAAAGTTGTTATCAGAAGTGGATGGGTTTAATTTCTGCACGTAGAAGCAAAAGGC [A31G G42T]	0.126
GAGACCGCAACTGAAAAGTTGTTATCAGAAGTGGATGGGTTAAATTTCTGCACGTAGAAGCAAAAGGC [A31G G42A]	0.367

Variant	fraction ligated
GAGACCGCAACTGAAAAGTTGTTATCAGAAGTGGATGGGTTCAATTTCTGCACGTAGAAGCAAAAGGC [A31G G42C]	0.0118
GAGACCGCAACTGAAAAGTTGTTATCAGAAAAGGATCGGTTGAATTTCTGCACGTAGAAGCAAAAGGC [T32A G37C]	0.00322
GAGACCGCAACTGAAAAGTTGTTATCAGAAAAGGATAGGTTGAATTTCTGCACGTAGAAGCAAAAGGC [T32A G37A]	0.000603
GAGACCGCAACTGAAAAGTTGTTATCAGAAAAGGATTGGTTGAATTTCTGCACGTAGAAGCAAAAGGC [T32A G37T]	0.00279
GAGACCGCAACTGAAAAGTTGTTATCAGAATTGGATTGGTTGAATTTCTGCACGTAGAAGCAAAAGGC [A31T G37T]	0.0157
GAGACCGCAACTGAAAAGTTGTTATCAGAATTGGATCGGTTGAATTTCTGCACGTAGAAGCAAAAGGC [A31T G37C]	0.00621
GAGACCGCAACTGAAAAGTTGTTATCAGAATTGGATAGGTTGAATTTCTGCACGTAGAAGCAAAAGGC [A31T G37A]	0.00615
GAGACCGCAACTGAAAAGTTGTTATCAGAAGTGGATGGGTTGCATTTCTGCACGTAGAAGCAAAAGGC [A31G A43C]	0.142
GAGACCGCAACTGAAAAGTTGTTATCAGAAGTGGATGGGTTGGATTTCTGCACGTAGAAGCAAAAGGC [A31G A43G]	0.101
GAGACCGCAACTGAAAAGTTGTTATCAGAAGTGGATGGGTTGTATTTCTGCACGTAGAAGCAAAAGGC [A31G A43T]	0.168
GAGACCGCAACTGAAAAGTTGTTATCAGAAGTGGATGGGTTGATTTTCTGCACGTAGAAGCAAAAGGC [A31G A44T]	0.804
GAGACCGCAACTGAAAAGTTGTTATCAGAAGTGGATGGGTTGACTTTCTGCACGTAGAAGCAAAAGGC [A31G A44C]	0.71
GAGACCGCAACTGAAAAGTTGTTATCAGAAGTGGATGGGTTGAGTTTCTGCACGTAGAAGCAAAAGGC [A31G A44G]	0.788
GAGACCGCAACTGAAAAGTTGTTATCAGAAAAGGATGGGTTCAATTTCTGCACGTAGAAGCAAAAGGC [T32A G42C]	0.00255
GAGACCGCAACTGAAAAGTTGTTATCAGAAAAGGATGGGTTAAATTTCTGCACGTAGAAGCAAAAGGC [T32A G42A]	0.00239
GAGACCGCAACTGAAAAGTTGTTATCAGAATTCGATGGGTTGAATTTCTGCACGTAGAAGCAAAAGGC [A31T G33C]	0.689
GAGACCGCAACTGAAAAGTTGTTATCAGAATTAGATGGGTTGAATTTCTGCACGTAGAAGCAAAAGGC [A31T G33A]	0.755
GAGACCGCAACTGAAAAGTTGTTATCAGAATTTGATGGGTTGAATTTCTGCACGTAGAAGCAAAAGGC [A31T G33T]	0.467
GAGACCGCAACTGAAAAGTTGTTATCAGAATTGGATGGGTTGATTTTCTGCACGTAGAAGCAAAAGGC [A31T A44T]	0.814
